Results on 1 substance are retold here after paper PMC2115427.

The assay concerns the target urokinase plasminogen activator receptor (uPAR) of U937 cells (human (endogenous in U937)) (UniProt Q03405).
UniProt Q03405, sequence (Q03405 23-305): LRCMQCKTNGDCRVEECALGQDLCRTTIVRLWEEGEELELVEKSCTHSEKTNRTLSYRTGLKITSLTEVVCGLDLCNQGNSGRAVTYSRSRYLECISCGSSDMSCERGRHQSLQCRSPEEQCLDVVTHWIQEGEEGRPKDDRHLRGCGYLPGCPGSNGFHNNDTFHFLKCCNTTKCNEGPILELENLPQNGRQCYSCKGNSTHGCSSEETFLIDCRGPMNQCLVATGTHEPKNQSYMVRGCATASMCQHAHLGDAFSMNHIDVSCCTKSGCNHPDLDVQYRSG

The substance “human urinary urokinase of high Mr (uPA) (enzyme)” yielded a half-life of dissociation of 3 h.
